This note sets out measurements from US20220049236A1.

For assay [1], the target named is LPD displayed on the surface of yeast cells (EBY100) (Saccharomyces cerevisiae; human) (UniProt P32781). The assay is described as follows: flow cytometry of yeast cells displaying LPD, stained with Atto 633-labelled HSP70; the sample histogram is shifted to the right of the control histogram, whose Median RFU is printed as 26. (In general: A flow cytometer gives signals particle by particle.)

Assay [2] has as its target Heat shock 70 kDa protein 6/7 (human) (UniProt P17066). The assay is described as follows: IP from HDF supernatant, LFQ mass spectrometry; ratio against the glycosylation mutant.
Assay [3] has as its target Nidogen-1 (human) (UniProt P14543). The assay is described as above.
Assay [4] deals with HSP70 (UniProt P0DMV8). The assay is described as follows: ELISA, plate coated with HSP70.
The target in assay [5] is HSP70 (UniProt P0DMV8). Put plainly: ELISA, plate coated with HSP70, bound protein detected with peroxidase-conjugated anti-human antibody. Background: An ELISA detects its analyte on a solid surface through an enzyme-linked reagent.
The target of assay [6] is Heat shock 70 kDa protein 6/7 (human) (UniProt P17066). Put plainly: IP from HDF supernatant, LFQ mass spectrometry; ratio against Fc control.
For assay [7], the target named is Nidogen-1 (human) (UniProt P14543). The assay is described as above.
Sequence of Nidogen-1 (human) (P14543 29-1247 limits assumed): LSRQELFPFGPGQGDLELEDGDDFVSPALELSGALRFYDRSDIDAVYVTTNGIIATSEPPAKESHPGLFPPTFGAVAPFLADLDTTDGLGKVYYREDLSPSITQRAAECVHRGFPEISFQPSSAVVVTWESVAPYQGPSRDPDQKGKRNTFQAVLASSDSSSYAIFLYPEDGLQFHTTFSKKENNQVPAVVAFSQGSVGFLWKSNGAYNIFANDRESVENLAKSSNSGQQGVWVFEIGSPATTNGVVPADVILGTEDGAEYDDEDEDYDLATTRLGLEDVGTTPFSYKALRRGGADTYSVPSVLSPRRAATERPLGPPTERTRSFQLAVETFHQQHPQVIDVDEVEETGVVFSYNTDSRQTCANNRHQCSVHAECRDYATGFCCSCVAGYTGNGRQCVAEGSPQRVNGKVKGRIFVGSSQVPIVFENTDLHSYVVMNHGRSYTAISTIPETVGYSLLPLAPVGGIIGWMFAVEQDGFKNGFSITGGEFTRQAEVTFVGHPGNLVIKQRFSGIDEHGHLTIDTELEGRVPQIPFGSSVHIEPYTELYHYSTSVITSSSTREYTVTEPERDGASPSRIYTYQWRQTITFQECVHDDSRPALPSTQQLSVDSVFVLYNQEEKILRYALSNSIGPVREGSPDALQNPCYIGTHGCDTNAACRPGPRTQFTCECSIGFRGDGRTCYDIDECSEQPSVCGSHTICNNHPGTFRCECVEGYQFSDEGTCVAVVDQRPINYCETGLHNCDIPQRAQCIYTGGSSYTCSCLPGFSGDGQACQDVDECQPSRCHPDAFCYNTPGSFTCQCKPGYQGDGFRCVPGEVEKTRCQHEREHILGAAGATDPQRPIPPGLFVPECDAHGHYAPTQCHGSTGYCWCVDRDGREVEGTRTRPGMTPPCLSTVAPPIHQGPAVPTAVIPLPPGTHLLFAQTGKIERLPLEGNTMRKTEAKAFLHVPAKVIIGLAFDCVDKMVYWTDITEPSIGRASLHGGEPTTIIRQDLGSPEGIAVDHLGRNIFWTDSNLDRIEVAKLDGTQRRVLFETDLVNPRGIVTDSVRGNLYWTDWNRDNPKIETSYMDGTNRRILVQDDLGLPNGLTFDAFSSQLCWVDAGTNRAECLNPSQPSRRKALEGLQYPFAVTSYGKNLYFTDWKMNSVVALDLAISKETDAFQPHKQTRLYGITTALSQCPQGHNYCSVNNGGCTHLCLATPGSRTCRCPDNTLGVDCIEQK

Sequence of Heat shock 70 kDa protein 6/7 (human) (P17066 whole entry): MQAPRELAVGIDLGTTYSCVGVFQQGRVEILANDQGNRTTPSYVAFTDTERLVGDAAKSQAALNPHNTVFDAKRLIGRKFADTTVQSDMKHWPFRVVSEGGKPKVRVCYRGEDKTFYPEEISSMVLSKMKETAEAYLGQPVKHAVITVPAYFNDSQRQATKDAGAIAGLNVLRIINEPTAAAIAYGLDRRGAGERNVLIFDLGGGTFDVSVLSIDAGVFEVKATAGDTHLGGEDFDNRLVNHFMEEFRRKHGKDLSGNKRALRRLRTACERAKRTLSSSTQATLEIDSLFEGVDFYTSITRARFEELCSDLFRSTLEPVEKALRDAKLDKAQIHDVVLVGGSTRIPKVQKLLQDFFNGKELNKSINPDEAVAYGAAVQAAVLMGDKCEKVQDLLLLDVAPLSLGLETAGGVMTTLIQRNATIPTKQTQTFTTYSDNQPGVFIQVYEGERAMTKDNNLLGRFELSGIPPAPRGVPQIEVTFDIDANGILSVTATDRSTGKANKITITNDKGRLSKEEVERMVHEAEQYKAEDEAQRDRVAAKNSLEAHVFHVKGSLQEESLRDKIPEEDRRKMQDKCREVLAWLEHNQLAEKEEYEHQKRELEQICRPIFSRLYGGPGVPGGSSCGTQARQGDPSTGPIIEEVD
Sequence of HSP70 (P0DMV8 whole entry): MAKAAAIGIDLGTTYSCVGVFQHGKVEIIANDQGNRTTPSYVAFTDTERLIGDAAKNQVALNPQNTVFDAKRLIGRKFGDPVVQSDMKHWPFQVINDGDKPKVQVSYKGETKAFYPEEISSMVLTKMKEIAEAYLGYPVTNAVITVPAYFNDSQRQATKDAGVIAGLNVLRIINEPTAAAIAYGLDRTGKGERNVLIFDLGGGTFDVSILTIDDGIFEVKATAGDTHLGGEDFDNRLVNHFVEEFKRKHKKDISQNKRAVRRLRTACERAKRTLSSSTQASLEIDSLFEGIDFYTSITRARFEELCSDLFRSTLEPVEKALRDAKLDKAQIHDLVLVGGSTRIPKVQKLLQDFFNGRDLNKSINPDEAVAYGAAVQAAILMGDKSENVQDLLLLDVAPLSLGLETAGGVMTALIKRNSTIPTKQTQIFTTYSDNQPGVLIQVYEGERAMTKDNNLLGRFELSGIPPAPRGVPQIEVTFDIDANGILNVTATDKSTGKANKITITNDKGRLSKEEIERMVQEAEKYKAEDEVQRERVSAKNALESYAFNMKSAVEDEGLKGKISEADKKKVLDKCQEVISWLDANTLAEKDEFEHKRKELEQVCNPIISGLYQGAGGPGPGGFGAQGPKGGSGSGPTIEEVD

Turning to HSP70 (from UniProt P0DMV8 1-641), the Median RFU in assay [1] is 130 RFU.
As to “Fc-LPD (lysyl oxidase prodomain fused to Fc antibody fragment) (Fc fusion)”, the Ratio Fc-LPD:Fc-LPDN346, 409, 456Q in assay [2] came out at 0.4; in assay [3], 0.7. Besides, the half-maximal effective concentration (EC50) in assay [4] and in assay [5] was 41 nM throughout. Further, the Ratio Fc-LPD:Fc in assay [6] was determined as 78.4; in assay [7], 9.
For “Fc-LPD N346, 362, 409Q (from UniProt P28300 22-169) (Fc fusion)”, the Ratio Fc-LPD-N346, 409, 456Q:Fc was determined as 194 in assay [6] and 13.7 in assay [7].
